We go through six molecules from patent US10370438B2, “Histamine-releasing factor (HRF), HRF-receptor and methods of modulating inflammation” (LA JOLLA INSTITUTE FOR ALLERGY AND IMMUNOLOGY, priority 2010, dated 2019).

The test system of one experiment is HRF/IgE binding. Nature of the experiment: Competition ELISA of IgE binding to GST-mHRF-coated wells. Details: species or system mouse. The note with it: competitor incubated 2 hours. As to the method: To identify an inhibitor of HRF/Ig interactions to dissect the extracellular function (═HRF function as a cytokine) separate from the intracellular functions in vivo settings, the major Ig-interacting HRF sequence was studied as a specific inhibitor of HRF/Ig interactions. IgE molecules were incubated in GST-mHRF-coated wells in the presence or absence (−) of the indicated concentrations of competitors, GST-N19, GST-mHRF or mHRF-His6 for 2 hours. After incubation, bound-IgE was detected by incubation with biotinylated anti-mouse IgE mAb, followed by streptavidin-HRP. […] By contrast, none of the shorter mHRF peptides tested (residues 1-6, 1-12, 5-19, and 9-19) inhibited HRF/IgE binding. GST-N19 inhibited HRF/IgG binding as well.
(In general: An ELISA detects its analyte on a solid surface through an enzyme-linked reagent.)

The next experiment concerns C57BL/6 mice. Nature of the experiment: OVA-induced mast cell-dependent airway inflammation model. It counts as in vivo, mouse. The note with it: intranasal pretreatment before each OVA challenge. As to the method: Mice were sensitized with OVA (10 μg in 0.1 ml saline) at days 0, 7, 14, 21, 28, and 35. Sensitized mice were challenged with OVA (20 μg in 20 μl saline) at days 40, 43 and 46. Some mice were pretreated with GST, GST-N19 (400 μg in PBS), or N19 peptide (40 μg in 2% DMSO-containing PBS) 15 minutes before OVA challenge. Twenty-four hours after the last challenge, lung function in response to methacholine was tested using FlexiVent system (SCIREQ Scientific Respiratory Equipment). Mice were sacrificed and plasma, BAL fluids, and lung tissues were collected. Cells in BAL fluids were counted, and specific cell numbers were calculated after May-Giemsa staining of Cytospin preparations. Immunofluorescence microscopy was performed on membrane-permeabilized and non-permeabilized lung tissues. For staining of lung tissues by staining of H&E and periodic acid-Schiff (PAS), lung tissues were fixed with formalin and embedded in paraffin. For measurement of cytokine levels in lung tissues, lung homogenates were prepared (Oyoshi et al., Immunol. 120:303 (2007)) and cytokines quantified by ELISA. HRF in lung homogenates and plasma was SDS-PAGE and immunoblotting with anti-HRF Ab (Santa Cruz Biotechnology).
Asthma is a type 2 helper T cell-driven, chronic inflammatory lung disease (Wills-Karp, Annu Rev Immunol 17, 255 (1999)). To study HRF involvement in allergic airway inflammation, an airway inflammation model was utilized, in which mast cells are implicated in amplifying antigen-dependent chronic inflammation (Williams, et al., J Exp Med 192, 455 (Aug. 7, 2000)). C57BL/6 mice were first sensitized with OVA (10 μg) at days 0, 7, 14, 21, 28 and 35. At days 40, 43 and 46, mice were intranasally challenged with OVA (20 μg) or PBS. Some mice were intranasally pretreated with GST or GST-N19 (400 μg) before every OVA challenge. Twenty-four hours after the last challenge, mice were sacrificed and BAL fluids and lung tissues were collected. Lung tissues were homogenized.

Another experiment deals with IgE-sensitized mice. In words: Passive cutaneous anaphylaxis induced by mHRF in IgE-sensitized ears. It counts as in vivo, mouse. The note with it: 8 hours after injection in IgE-sensitized ears. As to the method: Mouse ears were first sensitized with 0.5 μg anti-TNP (C38-2 in the right ear and C48-2 in the left ear) IgE. After 24 hours, Evans' blue dye was intravenously (i.v.) injected, and TNP26-BSA (Ag: 0.1 μg) or mHRF-His6 (10 μg) were immediately injected into the ears. The acute (30 minute) reactions were analyzed by measurement of Evans' blue dye leakage. The ear thickness was measured using a micrometer (Mitutoyo) at 0.5, 1, 2, 4, 6, 8, 12, and 24 hours after mHRF-His6challenge. As a negative control, saline was injected into the ears in place of antigen or HRF challenge. IgG-mediated response was performed by sensitization with 2 μg IgG1 (in place of anti-TNP IgE) and challenge with anti-mouse IgG1 Ab (0.6 μg: Southern Biotechnology, in place of TNP26-BSA). Engraftmanet of Kit^W-sh/W-sh mice with BMMCs was performed 6 weeks before study (Nakano, T., et al. J Exp Med 162:1025-1043 (1985)). In some studies, mice were sensitized and stimulated as described above but without Evans blue.
Here, mice were sensitized with the IgE. […] After 30 minutes, mice were sacrificed, and the amount of Evans blue dye leaked from the ears measured. […]
mHRF-His6 (H) was injected in IgE-sensitized ears and LPR was analyzed by measurement of ear thickness at 8 hours after injection. […]
IGELa2 IgE was intradermally injected into ears. […] Eight hours after injection, the ear thickness was measured (FIG. 7).

For another experiment, the system named is IgE. Nature of the experiment: ELISA with monomeric and dimeric HRF-His6 as capturing agent. It counts as binding, mouse. Here is the method:
Monomeric and dimeric HRF-His6 proteins purified by HPLC were coated onto plastic wells. After blocking, 206 (HRF-nonreactive) and IGELa2 (HRFreactive) IgEs were incubated. Bound IgEs were detected by incubation with biotin-conjugated anti-mouse IgE antibody, followed by incubation with horseradish peroxidase-conjugated streptavidin. The absorbance at 450 nm was measured after development of the color. […] The dimerizing ability of HRF with multiple Ig-binding sites strongly indicates the potential of HRF to crosslink Ig-bound Fc receptors.

A further experiment deals with peritoneal mast cells. In words: β-hexosaminidase release (degranulation). It counts as cell-based, mouse. Conditions: cells sensitized with HRF-reactive IgE, 40 minutes. Here is the method:
Mast cells were sensitized with 0.5 μg/ml IgE overnight. The mast cells were stimulated with TNP26-BSA or mHRF-His6 for 40 minutes in Tyrode's buffer. The amount of β-hexosaminidase (β-hex) in both supernatants and cell pellets was measured. The percentage of β-hex release was calculated as follows: % release=β-hex in supernatants/β-hex in supernatants+β-hex in cell pellets)
These hypersensitivity reactions appear to be dependent on mast cells, as the reactions were abolished in mast cell-deficient Kit^W-sh/W-sh mice and restored in Kit^W-sh/W-sh mice engrafted with WT BMMCs (FIG. 6A). […] Therefore, HRF and HRF-reactive IgE can induce anaphylactic responses in a mast cell- and FcεRI-dependent manner. Consistent with this, peritoneal mast cells sensitized with the HRF-reactive, but not the HRF-nonreactive, IgE were activated upon stimulation with HRF (FIG. 6D). After 40 minutes, both supernatants and cell pellets were collected and β-hexosaminidase release was analyzed (FIG. 6D).

The test system of the next experiment is Unimmunized mice. In words: Intranasal HRF in naïve mice, BAL differential cell counting. It counts as in vivo, mouse. Conditions: for Lung inflammation: naïve C57BL/6 (WT) mice, 40 μg intranasally three times. As to the method:
In light of the presence of HRF-reactive IgG in naïve mice and recent studies reporting the role of mast cells in the initiation of adaptive immune responses (Galli, et al., Nat Immunol 6, 135 (February, 2005)), the effect of HRF on naïve mice was assessed. Unimmunized C57BL/6 (WT), μMT, and FcRγ^−/− mice (n=5 per cohort) were treated intranasally with 40 μg mHRF-His6 three times every third day. PBS served as a negative control. BAL procedures were conducted 24 hours after the last HRF administration. Differential cell counting was performed on cytospin preparations stained with May-Giemsa. […] FcRγ is shared by multiple Fc receptors including FcεRI.

For “residues 1-6: shorter mHRF peptide, residues 1-6 (MIIYRD; UniProt P63028 1-6, looked up, fragment)”, the “Inhibition of IgE binding to immobilized GST-mHRF” value (shortened to “Inhibition of IgE binding”) in the experiment on HRF/IgE binding was “none”.
For the molecule “residues 9-19: shorter mHRF peptide, residues 9-19 (SHDELFSDIYK; UniProt P63028 9-19, looked up, fragment)”, the “Inhibition of IgE binding” value in the experiment on HRF/IgE binding is reported as “none”.
On to “residues 5-19: shorter mHRF peptide, residues 5-19 (RDLISHDELFSDIYK; UniProt P63028 5-19, looked up, fragment)”, for which the “Inhibition of IgE binding” value in the experiment with HRF/IgE binding was “none”.
On to “residues 1-12: shorter mHRF peptide, residues 1-12 (MIIYRDLISHDE; UniProt P63028 1-12, looked up, fragment)”, for which the “Inhibition of IgE binding” value in the experiment with HRF/IgE binding is on record as “none”.
As to “N19 peptide: synthetic non-fusion N19 peptide, N-terminal 19 residue peptide of HRF (MIIYRDLISHDELFSDIYK; UniProt P63028 1-19, looked up, fragment)”, the Airway inflammation result in the experiment with C57BL/6 mice was “abrogated”.

B1: mHRF-His6: C-terminally hexahistidine-tagged recombinant mouse histamine releasing factor (protein)
chain: MIIYRDLISHDELFSDIYKIREIADGLCLEVEGKMVSRTEGAIDDSLIGGNASAEGPEGEGTESTVVTGVDIVMNHHLQETSFTKEAYKKYIKDYMKSLKGKLEEQKPERVKPFMTGAAEQIKHILANFNNYQFFIGENMNPDGMVALLDYREDGVTPFMIFFKDGLEMEKCHHHHHH
Take B1: the “Late-phase reaction (LPR), ear swelling” value in the experiment with IgE-sensitized mice is recorded as “as high as that induced by antigen”. The “Binding to IgE” value in the experiment on IgE (dimeric form as capturing agent) and with IgE (monomeric form as capturing agent) was “can bind” each time. Also, in the experiment with peritoneal mast cells, the “Mast cell activation (β-hexosaminidase release)” value is on record as “activated”. Also, in the experiment with Unimmunized mice (B cell-deficient (μMT) or FcRγ−/− mice), the “HRF effects (lung inflammation)” value was “not observed”. For the same molecule, the Lung inflammation entry with Unimmunized mice is on record as “induced weak lung inflammation”; with Unimmunized mice (listed as HRF) it was “weak lung inflammation is induced”. The HRF-induced lung inflammation entry in the experiment with Unimmunized mice (naïve FcεRIα−/− mice) is on record as “abrogated or reduced”. The “Neutrophils and eosinophils in BAL fluids” value with Unimmunized mice (naïve WT mice) is given as “increased”.
